Measurements from patent publication US20080020405A1, “Protein binding determination and manipulation” (priority 2002, published 2008).

Target: T1, WT SCCE (Stratum Corneum Chymotryptic Enzyme) (Homo sapiens, UniProt P49862)
T1 construct: made in house; host or cells: High 5 insect cells, transient transfection with pIE1-153A V4+ plasmid, protein secreted into the medium, Ni-NTA purified
Assay: Panning of the 6mer tandem phage peptide display library against WT SCCE, four rounds, clones sequenced
Format: binding
Conditions: for Hypervarible Domain, DNA sequence of clone, 6 mer Lib Panning Round 4 SCCE WT / Hypervarible Domain, peptide sequence of clone, 6 mer Lib Panning Round 4 SCCE WT: 6mer library, panning round 4 against SCCE WT; for Hypervarible Domain, DNA sequence of clone, 6 mer Lib Panning Round 4 SCCE WT: flanking TGC (Cys) codons; for Hypervarible Domain, peptide sequence of clone, 6 mer Lib Panning Round 4 SCCE WT: translated hexapeptide
Description: Packaging of Phagemids from Cells • 1. Re-suspend the complete lawns of the E. coli cells in 20 ml of LB/Amp/Tc medium and use 2 ml for inoculation of 50 ml LB/Amp/Tc medium (250 ml Erlenmeyer flask). • 1. Incubate at 180 rpm and 37° C. for 1 hour, add […] of M13K07 stock solution (10^11-10^12 cfu/ml) and incubate for 15 minutes at 37° C. without shaking. • 2. Allow the culture to shake at 37° C. for 45 min, then add Kanamycin (final concentration of 50 μg/ml) and continue the incubation at 37° C. @ 180 rpm overnight. • 3. The next day, centrifuge for 15 minutes at 8,000 rpm and 4° C. (GS3 rotor, Sorvall RC5C). • 4. Transfer the supernatant into a new centrifuge bottle and centrifuge again. • 5. Transfer the supernatant again, add 0.15 vol of PEG/NaCl solution, mix and incubate on ice for at least 2 hours. • 6. Centrifuge for 40 minutes at 8,000 rpm (GS3 rotor) • 7. Decant the supernatant, repeat the centrifugation for 1 minute at 4,000 rpm and remove last traces of supernatant using a pipet. • 8. Re-suspend each PEG-pellet in 1.0 ml PBS solution and collect the re-suspended phages in one SS34 centrifuge bottle • 9. To clear the suspension, centrifuge again for 10 minutes at 12,000 rpm (SS34 rotor). • 10. Recover the supernatant (pipet), add NaN3 to a final concentration of 0.02% and store the library at 4° C. Determination of Phagemid (Library) Titer (Colony Forming Units [CFU] Assay) • 1. Inoculate 20 ml of LB/Tc (20 μg/ml) medium with 200 μl of an E. coli WK6λmutS overnight culture (37° C.; LB/Tc) and incubate at 37° C. and 180 rpm for 2 to 3 hours (OD600=0.5) • 2. Fill 12 wells of a sterile 96-well culture dish with 90 μl of autoclaved water and prepare dilution series by transferring 10 μl aliquots of the library stock (dilutions 10^−1 to 10^−12). • 3. Add 100 μl of logarithmic growing cells, mix and incubate for 30 min at 37° C. • 4. Spot 20 μl portions of each well on LB/Amp/Tc agar plates and incubate over night at 37° C. • 5. As a control use 20 μl of non-infected log-phase cells spotted on LB/Amp/Tc and LB/Tc agar plates. • 6. Count the number of colonies on the next day and determine the titer. Panning Protein Targets • WT SCCE is the Stratum Corneum Chymotryptic Enzyme subdloned in the pIE vector and adapted with a carboxy-terminal polyglycine linker and polyhistidine sequence to facilitate purification and immobilization (see WT SCCE preparation below). The adaptations were performed using a QuickChange mutagenesis kit. The sequence is listed in document SCCE His6 pIE.doc. • Fyn SCCE is the Stratum Corneum Chymotryptic Enzyme adapted with a polyglycine liker, the Fyn SH3 domain and additional polyglycine linker and a polyhistidine sequence (see Fyn SCCE preparation below). The final sequence is listed in document SCCE FYN His6 pIE.doc. The modifications to create Fyn SCCE were performed using WT SCCE as a template using a QuickChange mutagenesis kit. • The expression and purification of WT SCCE and Fyn SCCE are presented in document SCCE production.doc Pre-Adsorption of Library with Matrix to Remove Non-Specific Binding • 1. Take 25 μl Ni-NTA Magnetic Agarose Beads (Qiagen) in a 1.5 ml tube (siliconized), labeled pre-adsorption library. • 2. Place in Magnet and remove Sup. • 3. Wash 2 times (2 min each time) with 500 μl Ni-NTA Binding Buffer (50 mM NaH2PO4 pH8.0, 300 mM NaCl, 10 mM Imidazole) to equilibrate beads to Immidizole. • 4. Add 200 μl TBS-T 0.1% BSA+200 μl (10^12 phage) of 6mer library to tube labeled pre-adsorption library (to remove phage that stick non-specifically to the beads). • 5. Incubate @ room temperature for 1 h w/rotation. Coating Matrix with Target Protein • 6. Take 25 μl Ni-NTA Magnetic Agarose Beads (Qiagen) in 2 separate 1.5 ml Ep tubes (siliconized), labeled SSCE-WT and SCCE-FYN. • 7. Place in Magnet and remove Sup. • 8. Wash 2 times (2 min each time) with (500 μl) Ni-NTA Binding Buffer (50 mM NaH2PO4 pH8.0, 300 mM NaCl, 10 mM Imidazole) to equilibrate beads to Immidizole. • 9. […]

T1 sequence (P49862 30-253): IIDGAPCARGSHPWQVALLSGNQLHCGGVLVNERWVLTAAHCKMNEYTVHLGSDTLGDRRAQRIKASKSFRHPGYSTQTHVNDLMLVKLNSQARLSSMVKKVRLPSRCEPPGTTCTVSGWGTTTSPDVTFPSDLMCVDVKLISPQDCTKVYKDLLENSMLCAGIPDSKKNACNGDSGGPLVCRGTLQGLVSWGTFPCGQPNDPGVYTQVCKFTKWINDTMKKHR

| Hypervarible Domain, DNA sequence of clone, 6 mer Lib Panning Round 4 SCCE WT | Hypervarible Domain, peptide sequence of clone, 6 mer Lib Panning Round 4 SCCE WT | Clone sequence also found in the other panning (remark) (panning round 4 SCCE WT) | Substance |
| --- | --- | --- | --- |
| TGCCAGCCGCATACGTGGAAGTGC | Gln Pro His Thr Trp Lys | (Also in SCCE FYN) | 041307_3 (QPHTWK; printed: Gln Pro His Thr Trp Lys) |
| TGCACGGCTGCGGTGGATCAGTGC | Thr Ala Ala Val Asp Gln |  | 041307_4 (TAAVDQ; printed: Thr Ala Ala Val Asp Gln) |
| TGCAAGCAGAATAGTGAGGCGTGC | Lys Gln Asn Ser Glu Ala |  | 041307_5 (KQNSEA; printed: Lys Gln Asn Ser Glu Ala) |
| TGCCCTGTGGCGGAGACGCCTTGC | Pro Val Ala Glu Thr Pro |  | 041307_7 (PVAETP; printed: Pro Val Ala Glu Thr Pro) |
| TGCACGCCTAATTCTGCGATTTGC | Thr Pro Asn Ser Ala Ile |  | 041307_8 (TPNSAI; printed: Thr Pro Asn Ser Ala Ile) |
| TGCAGTCATGTTAGGCGTAATTGC | Ser His Val Arg Arg Asn |  | 041307_10 (SHVRRN; printed: Ser His Val Arg Arg Asn) |
| TGCCATCATGGGCTTATTGTGTGC | His His Gly Leu Ile Val |  | 041307_11 (HHGLIV; printed: His His Gly Leu Ile Val) |
| TGCTATGCGAAGACGATGCGGTGC | Tyr Ala Lys Thr Met Arg |  | 041307_12 (YAKTMR; printed: Tyr Ala Lys Thr Met Arg) |
| TGCCATCATGGGCTTATTGTGTGC | His His Gly Leu Ile Val |  | 041307_17 (HHGLIV; printed: His His Gly Leu Ile Val) |
| TGCCATCATGGGCTTATTGTGTGC | His His Gly Leu Ile Val |  | 041307_18 (HHGLIV; printed: His His Gly Leu Ile Val) |
| TGCCATCATGGGCTTATTGTGTGC | His His Gly Leu Ile Val |  | 041307_19 (HHGLIV; printed: His His Gly Leu Ile Val) |
| TGCCATCATGGGCTTATTGTGTGC | His His Gly Leu Ile Val |  | 041307_22 (HHGLIV; printed: His His Gly Leu Ile Val) |
| TGCACTCCTCTGGCGCTTCCTTGC | Thr Pro Lys Ala Lys Pro |  | 041307_25 (TPKAKP; printed: Thr Pro Lys Ala Lys Pro) |
| TGCAAGAAGAAGAAGACGAAGTGC | Lys Lys Lys Lys Thr Lys |  | 041307_27 (KKKKTK; printed: Lys Lys Lys Lys Thr Lys) |
| TGCCATCATGGGCTTATTGTGTGC | His His Gly Leu Ile Val |  | 041307_29 (HHGLIV; printed: His His Gly Leu Ile Val) |
| TGCCCGAATAATAAGATTAGGTGC | Pro Asn Asn Lys Ile Arg |  | 041307_30 (PNNKIR; printed: Pro Asn Asn Lys Ile Arg) |
| TGCACTTCTACTAGGCCTCCTTGC | Thr Ser Thr Arg Pro Pro |  | 041307_31 (TSTRPP; printed: Thr Ser Thr Arg Pro Pro) |
| TGCCATATGAATATGTATATTTGC | His Met Asn Met Tyr Ile |  | 041307_32 (HMNMYI; printed: His Met Asn Met Tyr Ile) |
| TGCACGGGGGCGGGGCGGTCGTGC | Thr Gly Ala Gly Arg Ser |  | 041307_35 (TGAGRS; printed: Thr Gly Ala Gly Arg Ser) |
